Measured values published in publication PMC8196545 (Cell reports, 2021).

The binders below were run against T1, HIV-1 NL4-3 Env on infected cells (HIV-1 group M subtype B, NL4-3 (pNL4-3 …, strain)) (assay: not given).

| Binder | binding result |
| --- | --- |
| c10814 (antibody, V domains shown) V domain 1: EVRLDQSGTEMRKPGTRVRLSCKVSGHTTSDFFVHWVQQAPQRGPQWMGLINVEDENVIYADIFQGRISIVADTSKKTVFLDLTDLTFEETALYFCATHTLQKDTGDYVAAFDSWGQGTLLYVSS V domain 2: QSVLTQPPSVSAVPGQKVIISCSGRTSNIGTNFVSWYQQFPGAAPKLLIYDNFNRPSGISDRFSASKSDTSATLAITALQAGDEAEYYCGAWDSGLNPAVFVFGSGTRVFVL | binds |
| c1897 (antibody, V domains shown) VH: EVQLVQSGAEVKKPGSSVKVSCKGSGGTLNMFALSWVRQAPGQGLEWVGGIIPSFGTTNYAQKFEGRVTITADDSADESTATVHMELSSLRRDDTAVYYCARESSGRADDSLIGYFDRQGEYYFDFWGQGTLVTVSS VL: DIQMTQSPSTLSASIGDRVTITCRASQSISTLLAWYQQKPGKAPKLLISKASSLQSGVSARFSGSGSGTEFTLTINSLQPDDFATYSCQQYNSHPVTFGQGTKLEIK | binds |
| c1821 (antibody, V domains shown) VH: QVQLIQSGAEVKKPGASVKVSCKVSGYTFPEVSMHWVREAPGRGLEWVGGYDPQSAATVYAQRFQGRVTMTEDTSVDTAYMELTSLTSEDTALYFCARSIMIRYGGVIRSFAFDVWGQGTMVIVSS VL: SSELTQDPAVSVALGQTVTITCQGDSLRQYYATWYQRKPGQAPVLVLSGKNKRFSGIPDRFSGSTSGNSASLTIIGTQAEDEADYYCSSRGSDAYPHYVFGTGTKVTVL | binds |
| c2842 (antibody, V domains shown) VH: QVQLVQSGAEMKKPGSSVKVSCKASGGSFRSFTVNWVRQAPGQGLEWVGRIIAIFGSVDYAQKFQGRVTISADESTSTFYMDINSLKSEDTAVYYCVRDGLVGGRDFWGQGTQVTVSS VL: EIVLTQSPGTLSLSPGERATLFCRASQSIKKNYVAWYQQNPGQAPRLLIYGASSRATGTPDRFRGSGSGTDFTLTISRLEPEDFAVYYCQQYGSAQYSFGQGTKLEIK | binds |
| c3214 (antibody, V domains shown) VH: QVQLVQSGAEVKKPGSSVKVSCKASGDNFSGYGINWVRQAPGQGLEWMGRIFPMLPVPSYAQKFQGRVTITADESTNSAYLELTSLRSEDSAVYYCARGTGEGDYFDYWGQGTQVTVSS VL: DIQMTQSPSSVSASVGDRVTITCRASQGISRYVAWYQQKPGKAPKLLIYAASSLETGVPSRFSGSGSGTDFTLTISSLEPEDFATYYCQQANSFPLTFGGGTKVEIK | binds |
| c12286 (antibody, V domains shown) VH: EVHLVESGGGWIHPGMALRLSCAASGFTFEDFAMHWIRQVPGKGLEWVSSITWNGRDTAYADSVKGRFTISRDNAKNSLYLQMNSLRTEDTALYYCVKDSSVSSHYFDSWGQGIMAFVSS VL: AIQMTQSPSTLSASVGDTVTITCRASQSVSAWLAWYQQKPGKAPKLLIYKASSLQTGVPSRFSGSGSGTEFTLTINSLQPDDFATYSCQQYNFYPWTFGPGTKVEIK | binds |
| c8567 (antibody, V domains shown) VH: QQQRVETVKHAVDPGSFLIISCPTSGFTFETYAMHWVRQAPGKGLEWVAATSALGEKKYYSNAVKGRFLITRNNSKRTLYLEMSGLKAEDTAVYYCARSQGYCSDFSCYGYYYYMDVWVKGPTVIVSS VL: QSVLTQPPSVSAAPGEKVTISCSGNTTNIGNNFVAWYQHLPQNAPKLLIYEDHKRPFGIPDRFSGSKSGTSATLGISGLQTGDEADYYCQTWDAKLLIWIFGGGTKVTVL | binds |
| c32045 (antibody, V domains shown) VH: AVQLLESGGGLVKPGGSLRLSCAASGFTFGSYAMHWVRQAPGKGLEWVSSINISSTTYMYYSDSLKGRFTISRDNAKKTLYLQMASLRPEDTAVYYCVREATYCGSQCYSRYFDFWGSGTLVAVSS VL: DIQMTQSPPSVSAGVGDRVTITCRASQTISGFLSWYQQKPGKAPKLLIYAASTLHSGVPSRFSGSGSGTDFTLTISSLQPEDFATYYCQQSYSAPRTFGQGTKLEIK | binds |
| c2718 (antibody, V domains shown) VH: HVQLQQWGAGLLKPSETLSLTCAVYGESFSVYDWAWIRQSPGKGLEWIGEINHDGGTNYNPSLKSRVTISIDIHLRRFSLSLISVTAADTAIYYCARHIGQLEAFDYWGQGALVTVSS VL: QSALTQPASVSGSPGQSITISCTGITSDVGDHSYVSWYQQPPGKAPQLIIYDVVNWPPGVSHRFSGSKSGNTASLTITGLRAEDEADYYCASYRRGSSVVFGGGTKVTVL | binds |
| c8639 (antibody, V domains shown) VH: LLQLHESGPGLVKPSEALSLTCTVSGASATNGLYWAWIRQPPGKGLEWVASLKKWRGYYNPSLGSRVTISHAPDNQISLRLESVTAADAAVYFCVGFFSSSAFDYWGRGTLVTVSS VL: AYVLTQPPSVSVAPGKTAKISCEGNNIGQKAVHWYQQKSGQAPVLFISDGTTRTSGIPARFSGSRSGNTATLTISWVEGGDEADYYCQVMSGDTALFGGGTKLTVL | binds |
| c13173 (antibody, V domains shown) VH: EVYLMESGGGLVQPGGSLRLSCEVSGLNRTDYWMHWIRQPPGKGLEWVSRIYSHGGGTTYADSVRGRFSLSRDSAKSTLFLEMNSLRVEDTAIYYCLFSEGDFWGPGTLVTVSS VL: QSALTQPASLSGSPGQSITISCTGNSSDIGKSDYVSWYRQDPGKAPKLLIYDVSSRLSGISDRFSGSKSDNTASLTISGLQAEDEADYYCSSYTNWDTKVFGTGTRVTVL | binds |
| c8549 (antibody, V domains shown) VH: QVTLKESGPTLLRPADTLTLTCNFSGFSLTTDGVALGWMRQSPGKAPEWLAFLFYDDDKQYNPHLKSRLIISKASSTNQLVLAMTNMGPADAGTYFCARLNVLVHDVPPRNYGLDVWGRGITITVSS VL: DIVLTQSPVSLSVTPGQSASMSCKSSETLLHEDGKSYLYWYLQKPGQSPQLLIYEASKRFSGVSDRFTASGTGTHFTLQIDRVEVDDVGVYYCMENLKALTFGGGTRMEIK | binds |
| c7809 (antibody, V domains shown) VH: QEQRIESVRAAVEPGASLIISCPTSGFDFDRYTMHWVRQAPGKGLEWVAVTSSQGEKKYYSEAVKGRFLITRNNFKRTLYLEMSSLKPEDAGVYYCARSQGYCGTYACYGYYYYMDVWVKGPTVIVSS VL: QSVLTQPPSVSAAPGEKVAISCSGNTTNIEKNYVAWYQHVPETAPKLLIFENHKRPFGIPDRFSGSKSATSATLGISDLQTADEADYYCQTWDTKLHIWVFGGGTKLTVL | binds |

These binders were tested against T1, HIV-1 NL4-3 Env on infected cells (assay: flow cytometry on cells).

| Binder | binding result |
| --- | --- |
| HC antibody RI5281 (IgG1) (antibody, V domains shown) VH: QVRLAEFGGGVVRPGESLTLSCATSGFSFTSYGMHWVRQTPGKGLEWVAVIWNDGSRRYYSDSVQGRFTIAKDFANKTLSLQMRDLRVGDTAVYFCARAYGPQSEIDSWGQGILVTVSS VL: SYGLTQPSSVSVSPGQTAIITCFGNILPRKSAYWYRQTAGRAPTLVIFGDNNRPSGIPARFSGFTAGTVATLVIAATQVDDEGDYYCYSADNSGNHRGVFGGGTKLTVL | binds |

Each binder was assayed against gp120 JR-CSF (recombinant) (HIV-1, UniProt P20871) (assay: ELISA).

| Binder | binding result |
| --- | --- |
| HC antibody RI808 (IgG1) (antibody, V domains shown) VH: QIQLRESGPGLVKPSETLTLTCSVSGGSIFPYFYSWIRQPAGKGLEWIGRLFSNSGSVRSNPSMHTRVGFSMDRSRNQVSLTLTSVTAEDTAVYYCVRDIMREYDDINGAGGYYRGVDVWGRGTMVTVSS VL: NFMLTQPPSVSESPGKTVTISCTRNSGSIASNSVYWYRQRPGSPPTTLIHDNNRRPTGVPDRFSASIDTSSNSASLTISSLKTEDEADYYCQSYDNGNHVIFGGGTNLLVL | binds |
| HC antibody RI5281 (IgG1) (antibody, V domains shown) VH: QVRLAEFGGGVVRPGESLTLSCATSGFSFTSYGMHWVRQTPGKGLEWVAVIWNDGSRRYYSDSVQGRFTIAKDFANKTLSLQMRDLRVGDTAVYFCARAYGPQSEIDSWGQGILVTVSS VL: SYGLTQPSSVSVSPGQTAIITCFGNILPRKSAYWYRQTAGRAPTLVIFGDNNRPSGIPARFSGFTAGTVATLVIAATQVDDEGDYYCYSADNSGNHRGVFGGGTKLTVL | binds |
| HC antibody RI10953 (IgG1) (antibody, V domains shown) VH: EMRLEESGGALVKPGGSLRLSCVASGFKLSEWSLMWVRQAPGKGLQWVSSISLNQDYISYAGSVRGRFDVFRDRTQTSLLLNMNKLKTEDTGVYFCARVHAWRYFDWVNRRSPVEKVLSIDLWGRGTLVIVSS VL: SGATQPPSVSVSKGETARITCSGVELSSQYVSWYRQRPGQSPVLVMFHNNSRASRIPERFSASDSGDTATLTIAGAQDVDEAEYYCQTWDSKNYVTFGGGTKLTVL | binds |
